Laboratory results published in article PMC11320999, “APH(3’)-Ie, an aminoglycoside-modifying enzyme discovered in a rabbit-derived Citrobacter gillenii isolate” (Frontiers in Cellular and Infection Microbiology, 2024).

Key:
Test in all cases: purified protein
Format in all cases: biochemical, Citrobacter gillenii
Conditions in all cases: 1 mM ATP, 1 mM MgCl2, 2 mM KCl, 100 mM HEPES pH 7.0, 25 °C
[1] = test system: NC[C@@H]1O[C@H](O[C@H]2[C@@H](O)[C@H](O[C@@H]3[C@@H](O)[C@H](N)C[C@H](N)[C@H]3O[C@H]3O[C@H](CO)[C@@H](O)[C@H](O)[C@H]3N)O[C@@H]2CO)[C@H](N)[C@@H](O)[C@@H]1O
[2] = test system: NC[C@H]1O[C@H](O[C@H]2[C@H](O)[C@@H](O[C@H]3O[C@H](CO)[C@@H](O)[C@H](N)[C@H]3O)[C@H](N)C[C@@H]2N)[C@H](O)[C@@H](O)[C@@H]1O
[3] = test system: NC[C@H]1O[C@H](O[C@H]2[C@H](O[C@@H]3O[C@H](CO)[C@@H](O)[C@H]3O)[C@@H](O)[C@H](N)C[C@@H]2N)[C@H](N)[C@@H](O)[C@@H]1O

APH(3’)-Ie (Citrobacter gillenii)
Km [1]: 7.74 ± 1.44 µM | kcat [1]: 0.86 ± 0.01 s⁻¹ | kcat/Km [1]: 114000 ± 28000 M⁻¹ s⁻¹ | Km [2]: 20.99 ± 1.84 µM | kcat [2]: 1.06 ± 0.05 s⁻¹ | kcat/Km [2]: 50800 ± 4400 M⁻¹ s⁻¹ | Km [3]: 4.22 ± 0.88 µM | kcat [3]: 1.31 ± 0.09 s⁻¹ | kcat/Km [3]: 323000 ± 81000 M⁻¹ s⁻¹
